Data taken from article PMC4656083 (Chemistry & biology, 2015).

T1: FabA, β-hydroxyacyl-AcpP dehydratase (wild type) (E. coli, UniProt P0A6Q3 2-172)
T1 sequence: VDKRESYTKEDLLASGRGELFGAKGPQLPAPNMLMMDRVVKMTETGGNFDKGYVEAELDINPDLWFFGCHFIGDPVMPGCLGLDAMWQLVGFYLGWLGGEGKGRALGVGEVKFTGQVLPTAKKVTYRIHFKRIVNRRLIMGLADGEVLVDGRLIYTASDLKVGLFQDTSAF


Experiments:
Test in all cases: cross-linking
[1] = target: AcpP (acyl carrier protein) loaded with crosslinking probe DH6 (E. coli) (UniProt P0A6A8)
[2] = target: AcpP (acyl carrier protein) loaded with crosslinking probe DH10 (E. coli) (UniProt P0A6A8)
[3] = target: AcpP (acyl carrier protein) loaded with crosslinking probe DH8 (E. coli) (UniProt P0A6A8)
[4] = target: AcpP (acyl carrier protein) loaded with crosslinking probe DH10X (E. coli) (UniProt P0A6A8)
[5] = target: T1, FabA, β-hydroxyacyl-AcpP dehydratase …

Row | crosslinking efficiency relative to WT FabA [1] [%] | crosslinking efficiency relative to WT FabA [2] [%] | crosslinking efficiency relative to WT FabA [3] [%] | crosslinking efficiency relative to WT FabA [4] [%] | Molecule | also measured
1 | > 50 | > 50 | > 50 | > 50 | FabA F92A (enzyme) | –
2 | – | – | – | – | FabA F165A (enzyme) | crosslinking efficiency relative to FabA WT [2]: 50%; crosslinking efficiency relative to FabA WT [4]: 50%
3 | – | – | – | – | FabA F171A (enzyme) | crosslinking efficiency relative to FabA WT [2]: 50%; crosslinking efficiency relative to FabA WT [4]: 50%
4 | > 50 | > 50 | > 50 | > 50 | FabA L94A (enzyme) | –
5 | > 50 | > 50 | > 50 | > 50 | FabA L164A (enzyme) | –
6 | – | – | – | – | FabA R137E (enzyme) | percent complex formation (crosslinking) [1]: < 50%; percent complex formation (crosslinking) [2]: < 50%; percent complex formation (crosslinking) [3]: < 50%; percent complex formation (crosslinking) [4]: < 50%
7 | – | – | – | – | AcpP (acyl carrier protein) loaded with crosslinking probe DH10 (natural protein, E. coli, S36 carries the phosphopantetheine analogue of probe DH10 (sulfonyl-3-alkyne warhead, mimics a C10 acyl chain)) STIEERVKKIIGEQLGVKQEEVTNNASFVEDLGADSLDTVELVMALEEEFDTEIPDEEAEKITTVQAAIDYINGHQA | binding result [5]: binds
